Experimental data as given in article PMC12170907 (Cell Discovery, 2025).

How the values were obtained:
[1] = biological target: T1, Superfolder-GFP-tagged M-HBsAg (serotype ayw, genotype D3) (Hepatitis B virus genotype D3, serotype …, UniProt P03138); assay: ELISA; conditions: both partners purified
T1 construct: source: FreeStyle 293F cells, BacMam virus; purified (ELISA); membranes solubilised with 1% LMNG and 0.1% CHS, supernatant (pull-down); not shown: superfolder GFP, N-terminal, kept

[2] = biological target: T1, Superfolder-GFP-tagged M-HBsAg …; assay: pull-down; conditions: one partner purified

B1: 3× HA-tagged FabHBC (Fab, V domains shown)
VH: ELQLVESGGGWVQPGGSQRLSCAASGRIFRSFYMSWVRQAPGKGLEWVATINQDGSEKLYVDSVKGRFTISRDNAKNSLFLQMNNLRVEDTAVYYCAAWSGNSGGMDVWGQGTTVSVSS
VL: SYELTQPPSVSVSPGQTVSIPCSGDKLGNKNVCWFQHKPGQSPVLVIYEVKYRPSGIPERFSGSNSGNTATLTISGTQAMDEAAYFCQTWDSTTVVFGGGTRLTVL
notes: also called NAbHBC; parental antibody of VIR-3434; source: FreeStyle 293F, co-transfected heavy and light chain, purified from the supernatant (Ni-NTA, SP HP); not shown: His tag (from the Ni-NTA purification); 3× HA, C-terminal, kept
binding result [1]: binds

B2: strep-tagged Fab_(GC1102) (Fab, V domains shown)
VH: EVQLVESGGGLVKPGGSLRLSCSASGFSLTKYKMTWVRQAPGKGLEWVSSISSTSRDIDYADSVKGRFTISRDNAKNSLFLQMSSLRVDDTAVYYCTRDGWLWGWDVRSNYYYNALDVWGQGTTVTVSS
VL: DIVVTQSPSSLSASVGDRVTITCRASQGIYNSIAWYQQKPGKAPKLLLYSTSTLLSGVPSRFSGSGSGTDYTLTITNLQPEDFATYYCQQYFVTPETFGQGTKLEIK
notes: also called strep-HA-tagged NAb_(GC1102); Fab_(GC1102) bait
binding result [2]: binds

B3: Myc-tagged Fab_(GC1102) (Fab, V domains shown)
VH: B2 VH
VL: B2 VL
notes: also called NAb_(GC1102); GC1102 prey
binding result [2]: binds

B4: strep-tagged Fab_(H006) (Fab, V domains shown)
VH: QMRLVESGGGVVRPGGSLRLSCAGSGFRFTGYGIHWVRQAPGKGLEWLAYISNDGSKKYHTDSVKGRFTVSRDNAKNTAYLQMNSLRVEETAVYFCAKDGYLSAARGYGMDVWGQGIPVTVSP
VL: SYVLTQPPSVSVAPGQTATITCGGNNIGGKSVHWFQQKPGQAPLLIISDDNDRPSGIPERVSGSNSGNTATLTISRVEAGDEADYYCQVWDTTSDQLVFGGGTMLTVL
binding result [2]: binds

B5: Myc-tagged scFv_(H006) (scFv, V domains shown)
VH: B4 VH
VL: B4 VL
binding result [2]: binds
